# Test results taken from IntAct's records for PubMed 19478065.
# B1: Chaperone protein IpgC (Shigella flexneri), P0A2U4 (parent)
# chain: MSLNITENESISTAVIDAINSGATLKDINAIPDDMMDDIYSYAYDFYNKGRIEEAEVFFRFLCIYDFYNVDYIMGLAAIYQIKEQFQQAADLYAVAFALGKNDYTPVFHTGQCQLRLKAPLKAKECFELVIQHSNDEKLKIKAQSYLDAIQDIKE
# partner: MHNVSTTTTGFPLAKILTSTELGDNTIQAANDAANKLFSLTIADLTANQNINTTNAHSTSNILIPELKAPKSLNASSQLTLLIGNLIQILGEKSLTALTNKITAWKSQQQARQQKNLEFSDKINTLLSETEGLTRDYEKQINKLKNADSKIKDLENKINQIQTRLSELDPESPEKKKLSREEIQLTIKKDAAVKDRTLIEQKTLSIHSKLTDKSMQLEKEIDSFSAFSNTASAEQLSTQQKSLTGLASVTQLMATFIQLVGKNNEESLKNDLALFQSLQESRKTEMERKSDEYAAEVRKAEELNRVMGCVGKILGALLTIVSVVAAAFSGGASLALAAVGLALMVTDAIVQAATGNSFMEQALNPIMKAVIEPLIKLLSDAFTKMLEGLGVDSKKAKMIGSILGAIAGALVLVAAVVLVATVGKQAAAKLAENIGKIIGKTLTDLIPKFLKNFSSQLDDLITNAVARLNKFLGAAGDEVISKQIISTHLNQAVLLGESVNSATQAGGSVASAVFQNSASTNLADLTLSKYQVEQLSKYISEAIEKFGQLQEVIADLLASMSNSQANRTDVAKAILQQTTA
# B2: Type 3 secretion system translocon protein SctE (Shigella flexneri), P18011 (parent)
# chain: B1 partner
# Variants of: B1
# Conditions: with scte_shifl sctE
row,Variant,effect of a mutation on the interaction
1,S41M;Y44G;G75Q;A78M,disrupting interaction strength

# Variants of: B2
# Conditions: with ipgc_shifl ipgC
row,Variant,effect of a mutation on the interaction
1,MHNVSTTTTGFPLAKILTSTELGDNTIQAANDAANKLFSLTIADLTANQNINTTNAHSTSNILIPELAAPKSLNASSQLTLLIGNLIQILGEKSLTALTNKITAWKSQQQARQQKNLEFSDKINTLLSETEGLTRDYEKQINKLKNADSKIKDLENKINQIQTRLSELDPESPEKKKLSREEIQLTIKKDAAVKDRTLIEQKTLSIHSKLTDKSMQLEKEIDSFSAFSNTASAEQLSTQQKSLTGLASVTQLMATFIQLVGKNNEESLKNDLALFQSLQESRKTEMERKSDEYAAEVRKAEELNRVMGCVGKILGALLTIVSVVAAAFSGGASLALAAVGLALMVTDAIVQAATGNSFMEQALNPIMKAVIEPLIKLLSDAFTKMLEGLGVDSKKAKMIGSILGAIAGALVLVAAVVLVATVGKQAAAKLAENIGKIIGKTLTDLIPKFLKNFSSQLDDLITNAVARLNKFLGAAGDEVISKQIISTHLNQAVLLGESVNSATQAGGSVASAVFQNSASTNLADLTLSKYQVEQLSKYISEAIEKFGQLQEVIADLLASMSNSQANRTDVAKAILQQTTA [K68A],decreasing interaction strength
2,MHNVSTTTTGFPLAKILTSTELGDNTIQAANDAANKLFSLTIADLTANQNINTTNAHSTSNILIPENKAPKSLNASSQLTLLIGNLIQILGEKSLTALTNKITAWKSQQQARQQKNLEFSDKINTLLSETEGLTRDYEKQINKLKNADSKIKDLENKINQIQTRLSELDPESPEKKKLSREEIQLTIKKDAAVKDRTLIEQKTLSIHSKLTDKSMQLEKEIDSFSAFSNTASAEQLSTQQKSLTGLASVTQLMATFIQLVGKNNEESLKNDLALFQSLQESRKTEMERKSDEYAAEVRKAEELNRVMGCVGKILGALLTIVSVVAAAFSGGASLALAAVGLALMVTDAIVQAATGNSFMEQALNPIMKAVIEPLIKLLSDAFTKMLEGLGVDSKKAKMIGSILGAIAGALVLVAAVVLVATVGKQAAAKLAENIGKIIGKTLTDLIPKFLKNFSSQLDDLITNAVARLNKFLGAAGDEVISKQIISTHLNQAVLLGESVNSATQAGGSVASAVFQNSASTNLADLTLSKYQVEQLSKYISEAIEKFGQLQEVIADLLASMSNSQANRTDVAKAILQQTTA [L67N],disrupting interaction strength
3,MHNVSTTTTGFPLAKILTSTELGDNTIQAANDAANKLFSLTIADLTANQNINTTNAHSTSNILIPELKADKSLNASSQLTLLIGNLIQILGEKSLTALTNKITAWKSQQQARQQKNLEFSDKINTLLSETEGLTRDYEKQINKLKNADSKIKDLENKINQIQTRLSELDPESPEKKKLSREEIQLTIKKDAAVKDRTLIEQKTLSIHSKLTDKSMQLEKEIDSFSAFSNTASAEQLSTQQKSLTGLASVTQLMATFIQLVGKNNEESLKNDLALFQSLQESRKTEMERKSDEYAAEVRKAEELNRVMGCVGKILGALLTIVSVVAAAFSGGASLALAAVGLALMVTDAIVQAATGNSFMEQALNPIMKAVIEPLIKLLSDAFTKMLEGLGVDSKKAKMIGSILGAIAGALVLVAAVVLVATVGKQAAAKLAENIGKIIGKTLTDLIPKFLKNFSSQLDDLITNAVARLNKFLGAAGDEVISKQIISTHLNQAVLLGESVNSATQAGGSVASAVFQNSASTNLADLTLSKYQVEQLSKYISEAIEKFGQLQEVIADLLASMSNSQANRTDVAKAILQQTTA [P70D],disrupting interaction strength
4,MHNVSTTTTGFPLAKILTSTELGDNTIQAANDAANKLFSLTIADLTANQNINTTNAHSTSNILIRELKAPKSLNASSQLTLLIGNLIQILGEKSLTALTNKITAWKSQQQARQQKNLEFSDKINTLLSETEGLTRDYEKQINKLKNADSKIKDLENKINQIQTRLSELDPESPEKKKLSREEIQLTIKKDAAVKDRTLIEQKTLSIHSKLTDKSMQLEKEIDSFSAFSNTASAEQLSTQQKSLTGLASVTQLMATFIQLVGKNNEESLKNDLALFQSLQESRKTEMERKSDEYAAEVRKAEELNRVMGCVGKILGALLTIVSVVAAAFSGGASLALAAVGLALMVTDAIVQAATGNSFMEQALNPIMKAVIEPLIKLLSDAFTKMLEGLGVDSKKAKMIGSILGAIAGALVLVAAVVLVATVGKQAAAKLAENIGKIIGKTLTDLIPKFLKNFSSQLDDLITNAVARLNKFLGAAGDEVISKQIISTHLNQAVLLGESVNSATQAGGSVASAVFQNSASTNLADLTLSKYQVEQLSKYISEAIEKFGQLQEVIADLLASMSNSQANRTDVAKAILQQTTA [P65R],disrupting interaction strength
